Blank lines part the entries; values can stand above or below the binder they belong to.
Legend:
[1] = target: T1, His-tagged CEACAM1 (human, UniProt P13688 35-428); assay: SPR multi-cycle
T1 construct: 45 kDa SPR analyte; also called CEACAM1-HIS; CEACAM1 analyte
T1 sequence: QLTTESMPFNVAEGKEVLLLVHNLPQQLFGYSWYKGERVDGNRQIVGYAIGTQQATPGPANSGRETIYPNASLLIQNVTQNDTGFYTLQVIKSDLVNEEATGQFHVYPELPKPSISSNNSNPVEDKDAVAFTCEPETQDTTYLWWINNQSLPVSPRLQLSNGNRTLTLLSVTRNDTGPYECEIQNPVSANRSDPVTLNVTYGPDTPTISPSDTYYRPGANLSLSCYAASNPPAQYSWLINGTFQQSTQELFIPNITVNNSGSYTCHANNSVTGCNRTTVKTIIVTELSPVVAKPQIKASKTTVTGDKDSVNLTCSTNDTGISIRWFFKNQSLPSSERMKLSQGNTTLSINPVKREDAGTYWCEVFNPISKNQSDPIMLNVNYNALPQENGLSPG
How it was run: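 Kon, koff, Kd and relative KD were derived from multi-cycle surface plasmon resonance sensorgrams recorded on a Biacore T200. Runs were at 25° C in HBS-P+ (pH 7.4), with purified antibody at 1 μg/ml captured to ~75 RU on a Series S Protein A chip. His-tagged CEACAM1 was passed over as analyte at 80 μl/min in 2-fold dilutions from 200 to 3.125 nM or from 100 to 1.5625 nM, with 50 or 150 seconds of association, 100 seconds of dissociation and glycine-HCl pH 1.5 for regeneration.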

[2] = target: T2, CEACAM5 on transfected HeLa cells (human, UniProt P06731 35-685); assay: flow cytometry titration, HeLa-CEACAM5 transfectants, anti-human IgG4 FITC
T2 construct: whole, on cells; also called HeLa-CEACAM5; HeLa C5
T2 sequence (looked up): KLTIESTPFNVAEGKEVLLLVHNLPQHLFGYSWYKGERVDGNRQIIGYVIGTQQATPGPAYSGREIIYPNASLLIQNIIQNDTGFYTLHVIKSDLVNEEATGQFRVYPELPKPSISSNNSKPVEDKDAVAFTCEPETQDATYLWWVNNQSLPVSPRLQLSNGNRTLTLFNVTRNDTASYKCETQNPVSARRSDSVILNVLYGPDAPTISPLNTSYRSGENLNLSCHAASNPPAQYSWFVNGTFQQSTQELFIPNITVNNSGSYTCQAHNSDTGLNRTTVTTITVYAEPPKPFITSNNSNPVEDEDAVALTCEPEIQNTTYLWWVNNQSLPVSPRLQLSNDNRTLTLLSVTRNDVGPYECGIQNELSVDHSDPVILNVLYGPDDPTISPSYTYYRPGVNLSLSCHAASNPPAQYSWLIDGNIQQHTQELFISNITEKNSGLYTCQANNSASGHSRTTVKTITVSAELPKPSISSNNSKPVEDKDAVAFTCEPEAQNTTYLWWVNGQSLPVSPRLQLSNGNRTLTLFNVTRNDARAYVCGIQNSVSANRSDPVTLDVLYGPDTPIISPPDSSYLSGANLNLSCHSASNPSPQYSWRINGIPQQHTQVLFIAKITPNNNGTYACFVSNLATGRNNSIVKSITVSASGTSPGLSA
Method: FIGS. 31A and 31B show flow cytometry analyses of stable HeLa CEACAM1 (HeLa C1) transfectant, stable HeLa CEACAM3 transfectant (HeLa C3), stable HeLa CEACAM5 transfectant (HeLa C5), stable HeLa CEACAM6 transfectant (HeLa C6), and stable HeLa CEACAM8 transfectant (HeLa C8). FIG. 31A: 5×10\hat{ }4 indicated HeLa transfectants were washed with staining buffer and CP08H03/Vκ8 S29A (labeled “CP08”, left) or CEACAM1 antibody CM-24 was incubated at room temperature for 30 min, washed twice with staining buffer, and stained for anti-human IgG4 Fluorescein isothiocyanate (FITC) conjugated secondary antibody at room temperature for 20 min. Fluorescence intensities were determined by flow cytometry. Live cells were determined by 4′,6-diamidino-2-phenylindole (DAPI) staining as shown on the y-axis. Staining with the respective CEACAM1 antibody is shown on the x-axis. […]
The cervical adenocarcinoma cell line HeLa (ATCC No CCL-2) as well as transfected cell lines HeLaCEACAM1, HeLaCEACAM3, HeLaCEACAM5, HeLaCEACAM6 and HeLaCEACAM8 used for flow cytometry experiments were cultured at 37° C., 5.0% CO₂ in Dulbecco's modified Eagle's medium supplemented with 10% fetal bovine serum, penicillin (100 U/ml) and dihydrostreptomycin (100 μg/ml). […] Data were acquired with a Cytoflex flow cytometer (Invitrogen) and analyzed with FlowJo software (TreeStar, V7.6.5 for Windows).

[3] = target: T3, GST-CEACAM1 (human, UniProt P13688 35-141, limits assumed); assay: competition ELISA: binding of human CEACAM1-GST (37.5 µg/ml) to human CEACAM1 IgV domain tagless protein (1 µg/ml), anti-GST detection, OD 450 nm
T3 construct: also called human CEACAM1-GST protein
T3 sequence: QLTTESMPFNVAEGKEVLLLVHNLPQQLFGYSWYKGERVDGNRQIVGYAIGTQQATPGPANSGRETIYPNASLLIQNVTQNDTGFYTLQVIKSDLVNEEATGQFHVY
Method: The ability of the CEACAM1 antibodies to block CEACAM1 homodimerization was tested. […] In addition, IgG4 antibody was used as a control (0-1000 nM). Goat polyclonal anti-GST-HSP antibody from Abcam (1:2000) was used and assays were developed by addition of TMB solution (Life technologies). OD values were read at 450 nm on a plate reader. Data was plotted in a Graphpad and best-fit IC-50 values were determined.

Kd [1]: 105 nM | koff [1]: 0.0258 s⁻¹ | kon [1]: 246000 M⁻¹ s⁻¹ | relative KD [1]: 1
B1: chimeric antibody VH0/Vκ0 (antibody, IgG4, V domains shown)
VH: EVQLVESGGDLVKPGGSLKLACAASGFIFSSHGMSWVRQTPDKRLEWVATISSGGTYTYYPDSVKGRFTISRDNDKNTLYLQMNSLKSEDTAMYYCARHDFDYDAAWFAYWGQGTLVTVSS
VL: QIVLTQSPALMSASPGVKVTMTCSANSSVSYMYWYRQKPRSSPKPWIYLTSNLASGVPARFSGSGSGTSYSLTISSMEAEDAATYYCQQWSSNPPTFGSGTKLEIK
notes: IgG4 (S241P), kappa; also called VH0/Vκ0 (control); Chimeric VH0/Vκ0

binding result [2]: no binding (tested: 100 ug/ml) | IC50 [3]: 2.11 nM
B2: CP08H03/Vκ8 S29A (antibody, IgG4, V domains shown)
VH: EVQLLESGGGLVQPGGSLRLSCAASGFIFSSHGMSWVRQAPGKGLEWVATISSGGTYTYYPDSVKGRFTISRDNSKNTLYLQMNSLKAEDTAMYYCARHDFDYFPYWFAHWGQGTLVTVSS
VL: EIVLTQSPATLSLSPGERATLSCRANSAVSYMYWYQQKPGQAPRPWIYLTSNRATGVPARFSGSGSGTDYTLTISSLEPEDFAVYYCQQWSSNPPTFGQGTKLEIK
notes: IgG4 (S241P), kappa; also called CP08_H03/Parent VL; CP08_H03/Parental
